Measurements from PMC10688784, “In vitro characterization of the phage lysis protein MS2-L” (Microbiome Research Reports, 2023).
Where two headings read alike, the source gives them in different places.

Columns and labels:
[1] = molecular target: MS2-Lp23, MS2-L truncated of the first 22 amino acids, C-terminal StrepII-tag (MS2 phage); test: native MS; LILBID-MS; derivatives CF expressed in standard A19 S30 lysate with 60 µM DMPG nanodiscs, purified; 50 mM ammonium acetate pH 7.4; laser 10-20 mJ
[2] = molecular target: MS2-Lp23, MS2-L truncated of the first 22 amino acids, C-terminal StrepII-tag (MS2 phage); test: native MS; LILBID-MS; derivatives CF expressed in standard A19 S30 lysate with 0.4% Brij78, purified; 50 mM ammonium acetate pH 7.4 with 0.02% Brij78; laser 10-20 mJ
[3] = molecular target: MS2-Lp26, MS2-L truncated of the first 25 amino acids, C-terminal StrepII-tag (MS2 phage); test: native MS; LILBID-MS; derivatives CF expressed in standard A19 S30 lysate with 60 µM DMPG nanodiscs, purified; 50 mM ammonium acetate pH 7.4; laser 10-20 mJ
[4] = molecular target: MS2-Lp26, MS2-L truncated of the first 25 amino acids, C-terminal StrepII-tag (MS2 phage); test: native MS; LILBID-MS; derivatives CF expressed in standard A19 S30 lysate with 0.4% Brij78, purified; 50 mM ammonium acetate pH 7.4 with 0.02% Brij78; laser 10-20 mJ
[5] = molecular target: MS2-Lp29, MS2-L truncated of the first 28 amino acids, C-terminal StrepII-tag (MS2 phage); test: native MS; LILBID-MS; derivatives CF expressed in standard A19 S30 lysate with 60 µM DMPG nanodiscs, purified; 50 mM ammonium acetate pH 7.4; laser 10-20 mJ
[6] = molecular target: MS2-Lp29, MS2-L truncated of the first 28 amino acids, C-terminal StrepII-tag (MS2 phage); test: native MS; LILBID-MS; derivatives CF expressed in standard A19 S30 lysate with 0.4% Brij78, purified; 50 mM ammonium acetate pH 7.4 with 0.02% Brij78; laser 10-20 mJ
[7] = molecular target: MS2-Lp32, MS2-L truncated of the first 31 amino acids, C-terminal StrepII-tag (MS2 phage); test: native MS; LILBID-MS; derivatives CF expressed in standard A19 S30 lysate with 60 µM DMPG nanodiscs, purified; 50 mM ammonium acetate pH 7.4; laser 10-20 mJ
[8] = molecular target: MS2-Lp32, MS2-L truncated of the first 31 amino acids, C-terminal StrepII-tag (MS2 phage); test: native MS; LILBID-MS; derivatives CF expressed in standard A19 S30 lysate with 0.4% Brij78, purified; 50 mM ammonium acetate pH 7.4 with 0.02% Brij78; laser 10-20 mJ
[9] = molecular target: MS2-Lp35, MS2-L truncated of the first 34 amino acids, C-terminal StrepII-tag (MS2 phage); test: native MS; LILBID-MS; derivatives CF expressed in standard A19 S30 lysate with 60 µM DMPG nanodiscs, purified; 50 mM ammonium acetate pH 7.4; laser 10-20 mJ
[10] = molecular target: MS2-Lp35, MS2-L truncated of the first 34 amino acids, C-terminal StrepII-tag (MS2 phage); test: native MS; LILBID-MS; derivatives CF expressed in standard A19 S30 lysate with 0.4% Brij78, purified; 50 mM ammonium acetate pH 7.4 with 0.02% Brij78; laser 10-20 mJ
[11] = molecular target: MS2-L, full-length phage lysis protein with C-terminal StrepII-tag (MS2 phage) (UniProt P03609); test: native MS; LILBID-MS; derivatives CF expressed in standard A19 S30 lysate with 60 µM DMPG nanodiscs, purified; 50 mM ammonium acetate pH 7.4; laser 10-20 mJ
[12] = molecular target: T1, chaperone DnaJ with C-terminal His6-tag (UniProt P08622 1-376); test: pull-down; conditions: one partner purified
T1 construct: Chaperone DnaJ; the dnaJ gene cloned into NdeI/XhoI of pET21a; source: E. coli T7 Express, purified (Ni-NTA); not shown: His6, C-terminal, kept
T1 sequence (looked up): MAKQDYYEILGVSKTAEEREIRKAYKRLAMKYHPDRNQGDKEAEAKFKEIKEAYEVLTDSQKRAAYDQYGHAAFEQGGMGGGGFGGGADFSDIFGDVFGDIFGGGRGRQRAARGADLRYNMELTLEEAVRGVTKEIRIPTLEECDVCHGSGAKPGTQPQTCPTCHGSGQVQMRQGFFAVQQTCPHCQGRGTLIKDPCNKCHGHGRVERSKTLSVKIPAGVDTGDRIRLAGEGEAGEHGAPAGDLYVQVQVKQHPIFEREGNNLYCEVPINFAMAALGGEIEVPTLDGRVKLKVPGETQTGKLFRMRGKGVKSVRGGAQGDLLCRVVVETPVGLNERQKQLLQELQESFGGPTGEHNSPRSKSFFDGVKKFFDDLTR

[13] = molecular target: MS2-L, full-length phage lysis protein with C-terminal StrepII-tag (MS2 phage) (UniProt P03609); test: native MS; LILBID-MS; derivatives CF expressed in standard A19 S30 lysate with 60 µM DMPG nanodiscs, purified; 50 mM ammonium acetate pH 7.4; laser 10-20 mJ; remark: listed apart in the source

Question: Which results are given for “MS2-Lp23, MS2-L truncated of the first 22 amino acids, C-terminal StrepII-tag (domain or fragment)”?
Answer: stoichiometry N [1]: > 10 monomers; stoichiometry N [2]: < 4 monomers

Question: How did the stoichiometry N [3] turn out when “MS2-Lp26, MS2-L truncated of the first 25 amino acids, C-terminal StrepII-tag (domain or fragment)” was run?
Answer: > 10 monomers

Question: What about the stoichiometry N [4] of the same molecule?
Answer: < 4 monomers

Question: For “MS2-Lp29, MS2-L truncated of the first 28 amino acids, C-terminal StrepII-tag (domain or fragment)”, which stoichiometry N [5] is on record?
Answer: > 10 monomers

Question: What about the stoichiometry N [6] of the same molecule?
Answer: < 4 monomers

Question: Which stoichiometry N [7] does the source give for “MS2-Lp32, MS2-L truncated of the first 31 amino acids, C-terminal StrepII-tag (domain or fragment)” here?
Answer: > 10 monomers

Question: What about the stoichiometry N [8] of the same molecule?
Answer: < 4 monomers

Question: Which results are given for “MS2-Lp35, MS2-L truncated of the first 34 amino acids, C-terminal StrepII-tag (domain or fragment)”?
Answer: stoichiometry N [9]: > 10 monomers; stoichiometry N [10]: < 10 monomers

B1: MS2-L, full-length phage lysis protein with C-terminal StrepII-tag (natural protein, MS2 phage, UniProt P03609 1-75, looked up)
chain: MKTRFPQQSQQTPASTNRRRPFKHEDYPCRRQQRSSTLYVLIFLAIFLSKFTNQLLLSLLEAVIRTVTTLQQLLT
notes: Lysis protein L of bacteriophage MS2, 75 amino acids; codon exchange GAA (Glu) to AAA (Lys) at the first position after the start methionine; In nanodisc samples the peptide sits in MSP1E3D1/DMPG nanodiscs; also called full-length MS2-L; full-length toxin MS2-L; source: also unpurified in the reaction mix; not shown: StrepII, C-terminal, kept
Question: For B1, which stoichiometry N [11] is on record?
Answer: > 10 monomers

Question: Does B1 bind [12]?
Answer: binds

Question: What about the stoichiometry N [13] of the same molecule?
Answer: < 12 monomers
